US20260250363A1 (AP BIOSCIENCES, published 2026)
Read-outs that look alike come from different tables or passages of the source.

Assays:
[1] = molecular target: T1, SARS-CoV-2 B.1.1.529 Spike Protein (Omicron) (SARS-CoV-2, UniProt P0DTC2 16-1211); test: competition ELISA: blocks biotin-ACE2 binding to coated spike
[2] = molecular target: SARS-CoV-2 Spike Protein, wild type (R&D, Cat. #10549-CV) (SARS-CoV-2, UniProt P0DTC2 16-1211); test: as above
[3] = molecular target: SARS-CoV-2 B.1.617.2 Spike Protein (R&D, Cat. #10878-CV) (SARS-CoV-2, UniProt P0DTC2 16-1211); test: as above
[4] = molecular target: SARS-CoV-2 C.37 Spike His Protein (R&D, Cat. #10887-CV) (SARS-CoV-2, UniProt P0DTC2 16-1211); test: as above
[5] = molecular target: SARS-CoV-2 AY.1 Spike Protein (R&D, Cat. #10922-CV) (SARS-CoV-2, UniProt P0DTC2 16-1211); test: as above
[6] = molecular target: SARS-CoV-2 AY.1 Spike Protein (R&D, Cat. #10922-CV) (SARS-CoV-2, UniProt P0DTC2 16-1211)
[7] = molecular target: SARS-CoV-2 Spike Protein, wild type (R&D, Cat. #10549-CV) (SARS-CoV-2, UniProt P0DTC2 16-1211); test: direct ELISA on coated spike; no plateau within the range shown
[8] = molecular target: SARS-CoV-2 C.37 Spike His Protein (R&D, Cat. #10887-CV) (SARS-CoV-2, UniProt P0DTC2 16-1211); test: as above
[9] = molecular target: T2, SARS-CoV-2 Spike Trimer, His Tag (BA.5/Omicron) (MALS verified) (AcroBiosystems, SPN-C522e) (SARS-CoV-2, UniProt P0DTC2 16-1213); test: competition ELISA: blocks biotin-ACE2 binding to coated spike
[10] = molecular target: T3, Recombinant SARS-CoV-2 BA.2 Spike (GCN4-IZ) His Protein, CF (R&D, 11109-CV) (SARS-CoV-2, UniProt P0DTC2 16-1211); test: as above
[11] = molecular target: T1, SARS-CoV-2 B.1.1.529 Spike Protein …; test: as above; remark: listed apart in the source
[12] = molecular target: T4, SARS-CoV-2 Spike Trimer, His Tag (BA.4/Omicron) (MALS verified) (AcroBiosystems, SPN-C5229) (SARS-CoV-2, UniProt P0DTC2 16-1213); test: as above
[13] = molecular target: T2, SARS-CoV-2 Spike Trimer, His Tag …; test: BLI (ForteBio), mAb on AHC sensor, spike in solution
[14] = molecular target: T4, SARS-CoV-2 Spike Trimer, His Tag …; test: as above
[15] = molecular target: T3, Recombinant SARS-CoV-2 BA.2 Spike …; test: as above
[16] = molecular target: T1, SARS-CoV-2 B.1.1.529 Spike Protein …; test: as above

B1: Anti-SARS-CoV-2 #R4-11#R4-1a-10 scFv bsAb (bispecific antibody)
heavy: not shown
light: QSVLTQPPSVSEAPGQRVTISCSGSSSNIANNAVNWYQQLPGQAPKLLIFYDDLLPSWVSDRFSGSKSGTSASLAISGLQSEDEADYYCAAWDDSLNGPVFGGGTKLTVLRQPVAAPSVTLFPPSSEELQANKATLVCLISDFYPGAVTVAWKADSSPVKAGVETTTPSKQSNNKYAASSYLSLTPEQWKSHKSYSCQVTHEGSTVEKTVAPAECS
Work on B1 yielded an IC50 [1] of 2.32 nM, an IC50 [2] of 2.73 nM and an IC50 [3] of 1.45 nM. The IC50 [4] was 1.97 nM and the IC50 [5] was 0.715 nM.

B2: R4-7 (antibody, V domains shown)
VH: QVQLQESGGGLVQPGGSLRLSCAVSGMTLDYYAIAWFRQAPGKEREGVSRISSSDGSTSYADSVKGRFTISRDNAKNTVYLQMNSLKPEDTGVYYCAASPLTYYSGTYYFPGEYDYWGQGTQVTVSS
Work on B2 yielded an EC50 [6] of 252000 nM, an EC50 [7] of 20.4 nM and an EC50 [8] of 13.3 nM.

B3: Anti-SARS-CoV-2 #R4-21-# R4-1a-10 scFv bsAb (bispecific antibody)
heavy: not shown
light: QSALTQPASVSGSPGQSITISCTGTSSDVGGYNYVSWYQQHPGKAPKLIIYDVRNRPSGVSNRFSGSKSGNTASLTISGLQAEDEADYYCGSYTSSSTLGFGGGTKLTVLGQPKAAPSVTLFPPSSEELQANKATLVCLISDFYPGAVTVAWKADSSPVKAGVETTTPSKQSNNKYAASSYLSLTPEQWKSHKSYSCQVTHEGSTVEKTVAPTECS
Binder B3 has an IC50 [9] of 1.37 nM, an IC50 [10] of 0.246 nM and an IC50 [11] of 1.08 nM. For the same binder, the IC50 [12] was 1.04 nM.

B4: Anti-SARS-CoV-2 #R4-21-# R4-1a-51 scFv bsAb (bispecific antibody)
heavy: not shown
light: QSALTQPASVSGSPGQSITISCTGTSSDVGGYNYVSWYQQHPGKAPKLIIYDVRNRPSGVSNRFSGSKSGNTASLTISGLQAEDEADYYCGSYTSSSTLGFGGGTKLTVLGQPKAAPSVTLFPPSSEELQANKATLVCLISDFYPGAVTVAWKADSSPVKAGVETTTPSKQSNNKYAASSYLSLTPEQWKSHKSYSCQVTHEGSTVEKTVAPTECS
Work on B4 yielded an IC50 [9] of 1.65 nM, an IC50 [10] of 0.354 nM and an IC50 [11] of 1.01 nM. The IC50 [12] was 1.14 nM.

B5: Anti-SARS-CoV-2 #R4-1a-10-#R4-11 scFv bsAb (bispecific antibody)
heavy: not shown
light: QSVLTQPSSVSAAPWQRVTISCSGSDSNIGNNPVNWYQHVPGKAPTLLIYYDNFLASKISDRFSGSKSGTSASLAISGLQSDDEADYYCASWDDSLNGVVFGGGTKLTVLRQPKAAPSVTLFPPSSEELQANKATLVCLISDFYPGAVTVAWKADSSPVKAGVETTTPSKQSNNKYAASSYLSLTPEQWKSHRSYSCQVTHEGSTVEKTVAPTECS
With B5 the IC50 [1] was 1.06 nM, the IC50 [2] was 0.857 nM and the IC50 [3] was 0.563 nM. For the same binder, the IC50 [4] was 0.897 nM and the IC50 [5] was 0.349 nM.

B6: anti-SARS-CoV-2 antibody clone R4-21 (antibody, V domains shown)
VH: QVQLVQSGAEVKKPGESLKISCKGSGYSFTSYWIGWVRQMPGKGLEWMGIIYPGDSDTRYSPSFQGQVTISADKSISTAYLQWSSLKASDTAMYYCATQTPYYDSSDYYLGDAFDIWGQGTMVTVSS
VL: QSALTQPASVSGSPGQSITISCTGTSSDVGGYNYVSWYQQHPGKAPKLIIYDVRNRPSGVSNRFSGSKSGNTASLTISGLQAEDEADYYCGSYTSSSTLGFGGGTKLTVLG
B6 showed a Kd [13] of 2.63 nM, a Kd [14] of 1.62 nM and a Kd [15] of 2.32 nM. For the same binder, the Kd [16] was 2.58 nM.

B7: Anti-SARS-CoV-2 #R3-1a-1-# R4-1a-10 scFv bsAb (bispecific antibody)
heavy: not shown
light: NFMLTQPHSVSESPGKTVTISCTRSSGSIASKYVQWYQQRPGNSPTTVIYEDDQRPSGVPDRFSASIDSSANTASLTISGLKPEDEADYYCQSYDDNTAVFGGGTHLTVLGQPKAAPSVTLFPPSSEELQANKATLVCLVSDFYPGAVTVAWKADGSPVKVGVETTKPSKQSNNKYAASSYLSLTPEQWKSHRSYSCRVTHEGSTVEKTVAPAECS
For B7, the IC50 [9] was 4.97 nM, the IC50 [10] was 0.803 nM and the IC50 [11] was 1.83 nM. The IC50 [12] was 3.51 nM.

B8: R3-1a-1/R4-1a-51 scFv (bispecific antibody)
heavy chain with C-terminal scFv: not shown
light chain: NFMLTQPHSVSESPGKTVTISCTRSSGSIASKYVQWYQQRPGNSPTTVIYEDDQRPSGVPDRFSASIDSSANTASLTISGLKPEDEADYYCQSYDDNTAVFGGGTHLTVLGQPKAAPSVTLFPPSSEELQANKATLVCLVSDFYPGAVTVAWKADGSPVKVGVETTKPSKQSNNKYAASSYLSLTPEQWKSHRSYSCRVTHEGSTVEKTVAPAECS
B8 was tested, and the IC50 [9] was 11.1 nM, the IC50 [10] was 3.31 nM and the IC50 [11] was 5.85 nM. It also gave an IC50 [12] of 7.74 nM.
